These results are taken from the supplement of paper PMC5998384.

Series [1] has as its system HeLa Kyoto. In words: thermal stability score vs G1/S (z-score of summed log2 fold changes over temperatures); higher = more thermally stable than in G1/S.
In series [2] the test system is HeLa Kyoto. Description: solubility in G1/S (NP-40 vs SDS abundance) (log2 ratio); higher = more soluble. Particulars: cell cycle stage: G1/S.
For series [3], the system named is HeLa Kyoto. In words: melting temperature (median over replicates), in situ; higher = more thermally stable.
Series [4] has as its system HeLa Kyoto. Description: solubility change mitosis vs G1/S (difference of NP-40 vs SDS log2 ratios) (log2 ratio difference); higher = more soluble in mitosis.
The mark [5] stands for this setting: cell cycle stage: early G1 (4.5 h after nocodazole release).
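Throughout, for melting temperature (median over replicates), in situ: HeLa Kyoto cells synchronized by double thymidine or nocodazole block, proteins quantified by TMT10plex mass spectrometry, three independent biological replicates.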
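Throughout, for solubility change mitosis vs G1/S (difference of NP-40 vs SDS log2 ratios): synchronized HeLa Kyoto cells (double thymidine block for G1/S, nocodazole release for mitosis), protein amounts in NP-40 versus SDS lysates quantified by mass spectrometry, three biological replicates.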
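Throughout, for solubility in G1/S (NP-40 vs SDS abundance): HeLa Kyoto cells arrested at G1/S by double thymidine block, proteins quantified by TMT10plex mass spectrometry in mild NP-40 versus SDS extracts, three biological replicates.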
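Throughout, for thermal stability score vs G1/S (z-score of summed log2 fold changes over temperatures): synchronized HeLa Kyoto cells, proteins quantified by TMT10plex mass spectrometry, three biological replicates, mitosis taken 0.5 h after nocodazole release, G1/S directly after double thymidine block.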

Turning to “MAAAALRSGWCRCPRRCLGSGIQFLSSHNLPHGSTYQMRRPGGELPLSKSYSSGNRKGFLSGLLDNVKQELAKNKEMKESIKKFRDEARRLEESDVLQEARRKYKTIESETVRTSEVLRKKLGELTGTVKESLHEVSKSDLGRKIKEGVEEAAKTAKQSAESVSKGGEKLGRTAAFRALSQGVESVKKEIDDSVLGQTGPYRRPQRLRKRTEFAGDKFKEEKVFEPNEEALGVVLHKDSKWYQQWKDFKENNVVFNRFFEMKMKYDESDNAFIRASRALTDKVTDLLGGLFSKTEMSEVLTEILRVDPAFDKDRFLKQCENDIIPNVLEAMISGELDILKDWCYEATYSQLAHPIQQAKALGLQFHSRILDIDNVDLAMGKMMEQGPVLIITFQAQLVMVVRNPKGEVVEGDPDKVLRMLYVWALCRDQDELNPYAAWRLLDISASSTEQIL [TIMM44]”, the thermal stability score with HeLa Kyoto [1] (setting [5]) was 0.205; in the series on HeLa Kyoto [1] (cell cycle stage: mitosis), -0.742. In addition, the “solubility in G1/S (log2)” value with HeLa Kyoto [2] worked out at 0.144. Moreover, the values for the melting temperature in the series with HeLa Kyoto [3] (cell cycle stage: G1/S) and in the series with HeLa Kyoto [3] (cell cycle stage: mitosis) were 52 °C and 51.6 °C, respectively. Further, the “solubility change mitosis (log2)” value with HeLa Kyoto [4] is -0.0435.
With “MGGTTSTRRVTFEADENENITVVKGIRLSENVIDRMKESSPSGSKSQRYSGAYGASVSDEELKRRVAEELALEQAKKESEDQKRLKQAKELDRERAAANEQLTRAILRERICSEEERAKAKHLARQLEEKDRVLKKQDAFYKEQLARLEERSSEFYRVTTEQYQKAAEEVEAKFKRYESHPVCADLQAKILQCYRENTHQTLKCSALATQYMHCVNHAKQSMLEKGG [CHCHD3]”, the thermal stability score is -2.54 with HeLa Kyoto [1] (setting [5]) and -6 with HeLa Kyoto [1] (cell cycle stage: mitosis). Further, the “solubility in G1/S (log2)” value in the series with HeLa Kyoto [2] turned out to be 0.229. Besides, the melting temperature with HeLa Kyoto [3] (cell cycle stage: G1/S) is 54.6 °C; in the series on HeLa Kyoto [3] (cell cycle stage: mitosis) it was 54.2 °C. Further, the “solubility change mitosis (log2)” value in the series on HeLa Kyoto [4] was found to be 0.291.
As for “MPNWGGGKKCGVCQKTVYFAEEVQCEGNSFHKSCFLCMVCKKNLDSTTVAVHGEEIYCKSCYGKKYGPKGYGYGQGAGTLSTDKGESLGIKHEEAPGHRPTTNPNASKFAQKIGGSERCPRCSQAVYAAEKVIGAGKSWHKACFRCAKCGKGLESTTLADKDGEIYCKGCYAKNFGPKGFGFGQGAGALVHSE [CSRP1]”, the thermal stability score was -1.5 in the series with HeLa Kyoto [1] (setting [5]) and -2.91 in the series on HeLa Kyoto [1] (cell cycle stage: mitosis). Moreover, in the series on HeLa Kyoto [2], the “solubility in G1/S (log2)” value is -0.0793. The melting temperature in the series with HeLa Kyoto [3] (cell cycle stage: G1/S) came out at 60.2 °C. For the same sequence, the “solubility change mitosis (log2)” value in the series on HeLa Kyoto [4] was -0.142.
For “MARAAALLPSRSPPTPLLWPLLLLLLLETGAQDVRVQVLPEVRGQLGGTVELPCHLLPPVPGLYISLVTWQRPDAPANHQNVAAFHPKMGPSFPSPKPGSERLSFVSAKQSTGQDTEAELQDATLALHGLTVEDEGNYTCEFATFPKGSVRGMTWLRVIAKPKNQAEAQKVTFSQDPTTVALCISKEGRPPARISWLSSLDWEAKETQVSGTLAGTVTVTSRFTLVPSGRADGVTVTCKVEHESFEEPALIPVTLSVRYPPEVSISGYDDNWYLGRTDATLSCDVRSNPEPTGYDWSTTSGTFPTSAVAQGSQLVIHAVDSLFNTTFVCTVTNAVGMGRAEQVIFVRETPNTAGAGATGGIIGGIIAAIIATAVAATGILICRQQRKEQTLQGAEEDEDLEGPPSYKPPTPKAKLEAQEMPSQLFTLGASEHSPLKTPYFDAGASCTEQEMPRYHELPTLEERSGPLHPGATSLGSPIPVPPGPPAVEDVSLDLEDEEGEEEEEYLDKINPIYDALSYSSPSDSYQGKGFVMSRAMYV [PVRL2]”, the results for the thermal stability score with HeLa Kyoto [1] (setting [5]) and with HeLa Kyoto [1] (cell cycle stage: mitosis) were -2.1 and -3.87, respectively. In addition, the “solubility in G1/S (log2)” value in the series with HeLa Kyoto [2] was determined as 0.108. In addition, the values for the melting temperature in the series on HeLa Kyoto [3] (cell cycle stage: G1/S) and in the series with HeLa Kyoto [3] (cell cycle stage: mitosis) were 56.9 °C and 55.4 °C, respectively. The “solubility change mitosis (log2)” value in the series on HeLa Kyoto [4] was found to be 0.0111.
In the case of “MASAELQGKYQKLAQEYSKLRAQNQVLKKGVVDEQANSAALKEQLKMKDQSLRKLQQEMDSLTFRNLQLAKRVELLQDELALSEPRGKKNKKSGESSSQLSQEQKSVFDEDLQKKIEENERLHIQFFEADEQHKHVEAELRSRLATLETEAAQHQAVVDGLTRKYMETIEKLQNDKAKLEVKSQTLEKEAKECRLRTEECQLQLKTLHEDLSGRLEESLSIINEKVPFNDTKYSQYNALNVPLHNRRHQLKMRDIAGQALAFVQDLVTALLNFHTYTEQRIQIFPVDSAIDTISPLNQKFSQYLHENASYVRPLEEGMLHLFESITEDTVTVLETTVKLKTFSEHLTSYICFLRKILPYQLKSLEEECESSLCTSALRARNLELSQDMKKMTAVFEKLQTYIALLALPSTEPDGLLRTNYSSVLTNVGAALHGFHDVMKDISKHYSQKAAIEHELPTATQKLITTNDCILSSVVALTNGAGKIASFFSNNLDYFIASLSYGPKAASGFISPLSAECMLQYKKKAAAYMKSLRKPLLESVPYEEALANRRILLSSTESREGLAQQVQQSLEKISKLEQEKEHWMLEAQLAKIKLEKENQRIADKLKNTGSAQLVGLAQENAAVSNTAGQDEATAKAVLEPIQSTSLIGTLTRTSDSEVPDVESREDLIKNHYMARIVELTSQLQLADSKSVHFYAECRALSKRLALAEKSKEALTEEMKLASQNISRLQDELTTTKRSYEDQLSMMSDHLCSMNETLSKQREEIDTLKMSSKGNSKKNKSR [PPP1R21]”, the thermal stability score with HeLa Kyoto [1] (setting [5]) was 1.34; with HeLa Kyoto [1] (cell cycle stage: mitosis), 1.02. In the series with HeLa Kyoto [2], the “solubility in G1/S (log2)” value stood at 0.371. In addition, the values for the melting temperature in the series with HeLa Kyoto [3] (cell cycle stage: G1/S) and with HeLa Kyoto [3] (cell cycle stage: mitosis) were 51.3 °C and 51 °C, respectively. In the series with HeLa Kyoto [4], the “solubility change mitosis (log2)” value was -0.00813.
